Patent US12624123B2, “Compositions and methods for reducing off-target toxicity of antibody drug conjugates” (The Research Foundation for The State University of New York, priority 2019, dated 2026)
“And” between values parts separate entries of the source, which are not always exact repeats. Identical values can stand only once. “Also recorded” adds a separate entry of the source. Like-named read-outs stand apart in the source and are kept apart here. Square brackets hold non-standard residues; d marks the D form. Peptide text beside a SMILES is read from it. * marks the point of attachment. Dolaproine = CO[C@@H]([C@@H]1CCCN1)[C@@H](C)C(=O)O; Dil = CC[C@H](C)[C@H](NC)[C@@H](CC(=O)O)OC; X1 = C[C@@H](N*)[C@@H](O)c1ccccc1; NMeV = CN[C@H](C(=O)O)C(C)C

Key:
[1] = test system: NCI-N87 cells; assay: Cytotoxicity of MMAE and T-vc-MMAE in NCI-N87 cells with or without plasma; format: cell-based; details: 96 h, MMAE alone
Protocol: (§1) Log-phase MOLM-14, Ramos (RA 1), HT-29, LS174T, or NCI-N87 cells were seeded in 96-well microtiter plates at a density of 20,000 cells/well, 20,000 cells/well, 5,000 cells/well, 5,000 cells/well, and 10,000 cells/well, respectively, in 100 μL of culture medium. HT-29, LS174T, and NCI-N87 cells were allowed to adhere for 24 h before cell culture media was aspirated and replaced with 100 μL of fresh media containing a range of treatment for, 48 (LS174T), 96 (NCI-N87), or 120 (HT-29) h. MOLM-14 and Ramos cells were re-suspended with treatment solutions, where 100 μL of cell-treatment suspension was aliquoted into wells of a 96-well plate for 24 h. Treatment solutions consisted of calicheamicin, MMAE, topotecan, or SN38 with or without immunized animal plasma, purified anti-drug antibody, or antibody-drug conjugate (ADC) with or without plasma or anti-drug antibody. For MOLM-14 and Ramos cells, 25 μL of MTT solution (5 mg/mL in pH 7.4 1× PBS) was added directly to wells following treatment incubation. For adherent cells, treatment media was aspirated from wells and cells were washed three times with 100 μL of fresh media. Following the final wash, 100 μL of complete media and 25 μL of MTT solution were added to each well.

[2] = test system: 8C2 mAb; assay: Competitive ELISA of 8C2 with topotecan and SN38 (BSA-topotecan coated); format: binding, murine; details: 8C2 held constant at 10 nM; read-out: IC50 in competitive ELISA vs intact 8C2
Protocol: A competitive ELISA was employed to determine the affinity of intact 8C2 mAb for SN38 and topotecan. A BSA-topotecan conjugate was synthesized and immobilized as previously described (Shah et al., Int J Pharm. 2014; 465(1-2):228-238. doi:10.1016/j.ijpharm.2014.01.038) 8C2 concentration was held constant at 10 nM with increasing concentrations of topotecan or SN38. 8C2 drug samples were incubated for 2 hours at room temperature with agitation. Following incubation, wells were washed three times with 250 μL of PBS-T and three times with dH2O. Wells were then incubated with a 1:500 dilution anti-mouse AP conjugate secondary in PBS-T with 3% BSA for 1 h. After washing, 250 μL of 4 mg/ml PNPP in diethanolamine buffer pH 9.8 with absorbance being read at 405 nm. The change in absorbance over time data was fit to a four-parameter function in GraphPad Prism 7.

[3] = test system: HT-29 cells; assay: Competitive cell cytotoxicity (MTT) assay with HT-29 cells; format: cell-based; details: in absence of 8C2, read-out: IC50 of SN38
Protocol: as §1

[4] = biological target: 8C2 Fab; assay: Competitive SPR assay on exatecan chip; format: binding; details: 5 nM Fab, 1 hour incubation
Protocol: Exatecan was immobilized onto a CMS chip through amine coupling. […] Dilutions were incubated for one hour and subsequently injected over the exatecan immobilized chip. The observed maximum response data was fit to a 3 parameter inhibition equation in GraphPad Prism 7.
B/Bo is signal reached after a 3.5 minute injection with spiked in drugs divided by signal with Fab alone.

[5] = test system: SKBR3 cells; assay: Competitive cell assay with SKBR3 cells; format: cell-based
Protocol: SKBR3 cells were diluted to 4000 cells/100 μL and 100 μL was added to individual wells of a 96 well culture plate. Cells were incubated overnight to allow cells to adhere to the plate. […] Dxd and SN38 were diluted at the indicated concentrations and incubated for 90 minutes. Following incubation dilutions were added to individual wells in triplicate with fresh media dilutions added on day 1, 3 and 5 with cell viability evaluated on day 7 using an MTT assay.

[6] = test system: SK-BR-3 cells; assay: MTT cytotoxicity assay in SK-BR-3 cells; format: cell-based; details: 24 h exposure, 10 μM sdAb
Protocol: Positive clone sdAbs' DNA in pComb3XSS plasmid was isolated and transferred into pET-22b expression vector in SHuffle cells for expression. SK-BR-3 cells were used to test the anti-DM4 sdAbs effect on DM4 cytotoxicity. Briefly, 2,500 cells/well were seeded into a 96-well plate and allowed to adhere for 24 h before cell culture media was aspirated and replaced with 100 μL of fresh media solution containing with or without 10 μM of anti-DM4 sdAb and a range of DM4 concentration for another 24 h exposure period. The cells were then washed 2 times before replacing with fresh media and allowed to grow for additional 72 h.

[7] = Competitive ELISA with free DM4; format: binding
Protocol: To determine the binding affinity of the anti-DM4 sdAbs to DM4-conjugates and free DM4, indirect ELISA and competitive ELISA were employed. Briefly, ELISA plate were coated overnight with 100 μL of neutravidin at different concentration ranging from 1 μg/mL to 10 μg/mL. After blocking with 200 μL of 2% skimmed milk-PBST for 1 h, 100 μL of 1 μM biotin-DM4 solution was added into each well and incubated for 30 min, then 100 μL of purified anti-DM4 sdAb solution at concentration ranging from 0.1 nM to 1 μM was added and incubated for 1 h. Bound sdAbs were detected with HRP conjugated anti-His antibody and TMB substrate. After the linear range of binding was determined via the indirect ELISA, a concentration of anti-DM4 sdAb near the IC50 of binding was selected to proceed with competitive ELISA. For the competitive ELISA, anti-DM4 sdAb concentration was held constant as determined from the indirect ELISA and incubated with increasing concentration of DM4 ranging from 0.1 nM to 1 μM.

[8] = test system: SK-BR-3 cells; assay: MTT cytotoxicity assay in SK-BR-3 cells; format: cell-based; details: 10 μM DMFH1
[9] = test system: KG-1 cells; assay: MTT assay with DMFH1 in AML cell line KG-1; details: KG-1, 48-hour exposure, 10 μM DMFH1
Protocol: (§2) MTT Cell based assay with DMFH1 in AML cell lines. Cell cytotoxicity of DM4 on MOLM-14, KG-1, Kasumi-3, MV-4-11 cells with and without 10 μM of DMFH1 sdAb over a 48-hour exposure periods.

[10] = test system: MOLM-14 cells; assay: MTT assay with DMFH1 in AML cell line MOLM-14; details: MOLM-14, 48-hour exposure, 10 μM DMFH1
Protocol: as §2

[11] = test system: MV-4-11 cells; assay: MTT assay with DMFH1 in AML cell line MV-4-11; details: MV-4-11, 48-hour exposure, 10 μM DMFH1
Protocol: as §2

[12] = test system: Kasumi-3 cells; assay: MTT assay with DMFH1 in AML cell line Kasumi-3; details: Kasumi-3, 48-hour exposure, 10 μM DMFH1
Protocol: as §2

[13] = 8C2 VHH binding to SN38 immobilized on magnetic beads
Protocol: The complementarily determining regions of the 8C2 heavy chain were placed into the stable human framework m0 that was reported by Dimitrov et al (PMID 18687338). DNA encoding for the 8C2 VHH was synthesized by GeneArt. DNA sequences were ligated into the Pet22b vector between the XhoI and NdeI restriction enzyme sites. DNA was transformed into Shuffle T7 express E. coli cells and expressed using standard recombinant expression. To evaluate binding activity, 8C2 VHH was incubated with SN38 immobilized onto magnetic beads and bound VHH detected with an anti-HIS tag HRP labeled reporter antibody. Intact 8C2 mAb was incubated alone and in-combination with 8C2 VHH and 8C2 mAb binding evaluated with an anti-mouse IgG HRP reporter antibody.

**Q.** With `CC[C@H](C)[C@@H]([C@@H](CC(=O)N1CCC[C@H]1[C@H](OC)[C@@H](C)C(=O)N[C@H](C)[C@@H](O)c1ccccc1)OC)N(C)C(=O)[C@@H](NC(=O)[C@@H](NC)C(C)C)C(C)C` [MMAE, monomethyl auristatin E] (H-[NMeV]V[Dil][Dolaproine]-X1) as the molecule, how does the IC50 [1] read?
**A.** 0.496 ± 0.0327 nM

**Q.** Which IC50 [2] does the source give for `CCc1c2c(nc3ccc(O)cc13)-c1cc3c(c(=O)n1C2)COC(=O)[C@]3(O)CC` [SN38] here?
**A.** 10.3 nM

**Q.** And the IC50 [3]?
**A.** 8 nM

**Q.** What about the “IC50 for inhibition of Fab binding to immobilized exatecan” value [4] of the same molecule?
**A.** low-nanomolar

**Q.** What about the IC50 ([5]; viability day 7, read-out: IC50 of free SN38) of the same molecule?
**A.** 1.4 nM

**Q.** Which results are given for `CC[C@@]1(O)C(=O)OCc2c1cc1n(c2=O)Cc2c-1nc1cc(F)c(C)c3c1c2[C@@H](NC(=O)CO)CC3` [Dxd]?
**A.** IC50 for inhibition of Fab binding to immobilized exatecan [4]: low-nanomolar; IC50 ([5]; viability day 7, read-out: IC50 of Dxd alone): 0.7 nM

B1: DMFH1 (protein)
VHH: QVQLQESGGGLVQPGGSLRLSCAASGSIFGISYMGWYRQAPGKQREPVAMITSGGSTYYADSVKGRVTISRDNAKKTVYLQMNSLRPEDASTYYCAAGCYRSDSPNRYDYWGQGTQVTVSS
modifications: DMFH1
**Q.** With B1 as the molecule, how does the “Fold shifted (DM4 IC50)” value [6] read?
**A.** 254 fold and 250.5 fold

**Q.** And the Kd ([7]; free DM4, read-out: Estimated KD)?
**A.** 11 nM and 10.5 nM

**Q.** What about the IC50 ([7]; read-out: Estimated binding affinity IC50 to free DM4) of the same molecule?
**A.** 11 nM

**Q.** And the “effect on Trastuzumab Emtansine (T-DM1) cytotoxicity” value [8]?
**A.** did not alter the cytotoxicity; also recorded: did not change T-DM1 cytotoxicity significantly

**Q.** And the “fold shift of DM1 IC50” value ([8]; 24 h)?
**A.** 85.6 fold

**Q.** And the “fold shift of DM4 IC50” value [9]?
**A.** 57.2 fold

**Q.** And the “fold shift of DM4 IC50” value [10]?
**A.** 60.7 fold

**Q.** What about the “fold shift of DM4 IC50” value [11] of the same molecule?
**A.** 50.9 fold

**Q.** What about the “fold shift of DM4 IC50” value [12] of the same molecule?
**A.** 38.3 fold

B2: 8C2 VHH: heavy chain CDRs of 8C2 placed into a stable human framework, SEQ ID NO:69 (protein)
VHH: QVQLVQSGGGLVQPGGSLRLSCAASGFNIKDTYIHWMSWVRQAPGKGLEWVSPDLANDNTKYDPKYYADSVKGRFTISRDNSKNTLYLQMNTLRAEDTAVYYCATWGAIITLGGWGQTMVTVSS
modifications: 8C2 VHH
**Q.** Which results are given for B2?
**A.** increase in binding signal vs beads with blank buffer ([13]; anti-HIS detection): 2 ×; decrease of 8C2 mAb binding by addition of 8C2 VHH ([13]; anti-mouse IgG detection): ~2 fold
